Measured values published in paper PMC12374583 (2025).

Target: CR3 (Homo sapiens, UniProt P11215)
Experiment: MST

Kd: 5.73 nM
B1: Complement C3 (peptide)
chain: SSKITHRIHWESASLLR
